From patent publication US6670167B1, “Catalytic domain of the human effector cell cycle checkpoint protein kinase materials and methods for identification of inhibitors thereof” (Agouron Pharmaceuticals, Inc., priority 1999, dated 2003)

Test system: Chk1
Assay: Chk1 kinase activity of enzyme preparations, ADP production coupled through pyruvate kinase and lactate dehydrogenase (Syntide-2 substrate)
Format: biochemical, human
Conditions: for Rate/min: prep concentration 75 nM (HA2-013), 2 nM (HA2-022), 7.3 nM (HB2-061), 0.125 mM Syntide-2, 0.15 mM ATP; for Activity: relative to full length Chk1 (control = 1)
Method: The kinase activity of the hChk1 was determined by monitoring the ADP production through enzymatic actions of pyruvate kinase and lactate dehydrogenase. […] Unlike the other forms of Chk1 which have proven difficult to work with (isolate, purify, crystallize, etc), the 1-289 kinase domain form of the human Chk1 enzyme facilitated crystallography, enzyme characterization, and high throughput screening of inhibitors. In particular, the Chk1 kinase domain was used to determine its 3-dimensional structure, which provides unique structural information for inhibitor design for therapeutic development.
The enzymatic activity of a kinase is measured by its ability to catalyze the transfer of a phosphate residue from a nucleoside triphosphate to an amino acid side chain in a selected protein target. The conversion of ATP to ADP generally accompanies the catalytic reaction. Herein, a synthetic substrate peptide, Syntide-2, having amino acid sequence PLARTLSVAGLPGKK (SEQ ID NO. 11) was utilized. The production of ADP from ATP that accompanies phosphoryl transfer to the substrate was coupled to oxidation of NADH using phosphoenolpyruvate (PEP) through the actions of pyruvate kinase (PK) and lactic dehydrogenase (LDH). The oxidation of NADH was monitored by following the decrease of absorbance at 340 nm (e340=6.22 cm−1 mM−1) using a HP8452 spectrophotometer. Typical reaction solutions contained: 4 mM PEP, 0.15 mM NADH, 28 units of LDH/mL, 16 units of PK/mL, 3 mM DTT, 0.125 mM Syntide-2, 0.15 mM ATP and 25 mM MgCl2 in 50 mM TRIS pH 7.5; 400 mM NaCl. Assays were initiated with 10 nM of kinase domain of Chk1, KH289. Ki values were determined by measuring initial enzyme activity in the presence of varying concentrations of inhibitors. The data were analyzed using Enzyme Kinetic and Kaleidagraph software.
The table below (Table 3) compares three different preparations of Chk1. The first preparation is the full length form, which comprises amino acids 1-476 of SEQ ID NO. 2. The next preparation contains proteolytically cleaved fragments, a mixture of Chk1 protein fragments obtained from the full-length protein during fermentation. The exact enzymes involved and cleavage site generated for these fragments is unknown. […] The third preparation is the kinase domain of amino acids 1-289 of SEQ ID NO. 2 (KH289) As mentioned above, the assay used detects the ADP product by coupling through the enzymatic actions of pyruvate kinase and lactate dehydrogenase.

Sequence of Chk1 (O14757 9-265 limits assumed): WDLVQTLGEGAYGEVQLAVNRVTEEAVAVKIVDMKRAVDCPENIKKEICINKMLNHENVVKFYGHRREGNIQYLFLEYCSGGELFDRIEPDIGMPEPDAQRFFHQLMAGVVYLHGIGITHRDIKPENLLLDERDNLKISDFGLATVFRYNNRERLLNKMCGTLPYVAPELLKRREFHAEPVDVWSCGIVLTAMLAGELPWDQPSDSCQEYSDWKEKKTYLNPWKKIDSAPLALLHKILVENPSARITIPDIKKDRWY

B1: KH289: human Chk1 kinase domain (AA 1-289), C-terminal 6xHis-tag (protein)
chain: MAVPFVEDWDLVGTLGEGAYGEVQLAVNRVTEEAVAVKIVDMKRAVDCPENIKKEICINKMLNHENVVKFYGHRREGNIQYLFLEYCSGGELFDRIEPDIGMPEPDAQRFFHQLMAGVVYLHGIGITHRDIKPENLLLDERDNLKISDFGLATVFRYNNRERLLNKMCGTLPYVAPELLKRREFHAEPVDVWSCGIVLTAMLAGELPWDQPSDSCQEYSDWKEKKTYLNPWKKIDSAPLALLHKILVENPSARITIPDIKKDRWYNKPLKKGAKRPRVTSGGVSESPSGHHHHHH
In the case of B1, the “enzymatic activity compared with the full length protein” value (ADP production via pyruvate kinase and lactate dehydrogenase) is reported as “higher enzymatic activity than the full length protein”.

B2: HA2-013: preparation of the full length form of human Chk1, amino acids 1-476 of SEQ ID NO. 2 (protein, listed as Homo sapiens)
chain: MAVPFVEDWDLVGTLGEGAYGEVQLAVNRVTEEAVAVKIVDMKRAVDCPENIKKEICINKMLNHENVVKFYGHRREGNIQYLFLEYCSGGELFDRIEPDIGMPEPDAQRFFHQLMAGVVYLHGIGITHRDIKPENLLLDERDNLKISDFGLATVFRYNNRERLLNKMCGTLPYVAPELLKRREFHAEPVDVWSCGIVLTAMLAGELPWDQPSDSCQEYSDWKEKKTYLNPWKKIDSAPLALLHKILVENPSARITIPDIKKDRWYNKPLKKGAKRPRVTSGGVSESPSGFSKHIQSNLDFSPVNSASSEENVKYSSSQPEPRTGLSLWDTSPSYIDKLVQGISFSQPTCPDHMLLNSGLLGTPGSSQNPWQRLVKRMTRFFTKLDADKSYQCLKETCEKLQYQWKKSCMNQVTISTTDRRNNKLIFKVNLLEMDDKILVDFRLSKGDGLEFKRHFLKIKGKLIDIVSSQKVWLPAT
In the case of B2, the Rate/min is reported as 0.0190 and the Activity is reported as 1 (control) fold.

B3: HB2-061: preparation of the kinase domain of amino acids 1-289 of SEQ ID NO. 2 (KH289) (protein, listed as Homo sapiens)
chain: MAVPFVEDWDLVGTLGEGAYGEVQLAVNRVTEEAVAVKIVDMKRAVDCPENIKKEICINKMLNHENVVKFYGHRREGNIQYLFLEYCSGGELFDRIEPDIGMPEPDAQRFFHQLMAGVVYLHGIGITHRDIKPENLLLDERDNLKISDFGLATVFRYNNRERLLNKMCGTLPYVAPELLKRREFHAEPVDVWSCGIVLTAMLAGELPWDQPSDSCQEYSDWKEKKTYLNPWKKIDSAPLALLHKILVENPSARITIPDIKKDRWYNKPLKKGAKRPRVTSGGVSESPSG
For B3, the Rate/min was 0.0200 and the Activity was “+10 fold”.
